± gives the standard deviation of the averaged measurements.
B1: library; a variant is named by its letters at N, in order (parent)
chain: AATGTTGTTGATGCAACCATAAAGTGATATTTAATAATTATTTATAATCAGCAACTTAACCACAAAACAACCATATATTGATATNTCACAAAACAACCATAANTTGATATTTTTGTGAATCGAGTATTTCAGCAAAACTACTGCAGTAAGAA

Key:
[1] = variants of: B1; assay: relative integration efficiency (T-LR orientation) vs wild-type transposon end (log2 (normalized fold change)); transposon end mutated: left end; higher = more efficient transposition; settings: with VchCAST RNA-guided transposition machinery (E. coli BL21(DE3) host, lacZ target)
Method in brief: (§1)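 Pools of 1549 left-end or 1849 right-end barcoded transposon variants were cloned into a pUC57 mini-transposon donor and co-transformed into E. coli BL21(DE3) with a T7-driven effector plasmid carrying a CRISPR array, tniQ-cas8-cas7-cas6 and tnsA-tnsB-tnsC. Plating used 0.1 mM IPTG at 37°C for 18 h, and input plasmids and genomic integration junctions were PCR-amplified for Illumina sequencing, with two biological output replicates and four reference barcodes. Relative integration efficiency is the log-transformed fold change of output over input barcode abundance, normalised to the reference barcodes.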

[2] = variants of: B1; assay: relative integration efficiency (T-RL orientation) vs wild-type transposon end (log2 (normalized fold change)); transposon end mutated: left end; higher = more efficient transposition; settings: with VchCAST RNA-guided transposition machinery (E. coli BL21(DE3) host, lacZ target)
Method in brief: as §1

| Variant | relative integration efficiency (log2) [1] | relative integration efficiency (log2) [2] |
| --- | --- | --- |
| CG A65G | 0.108 ± 0.82 | 0.247 ± 0.21 |
| CG A65C | 0.328 ± 0.076 | 0.247 ± 0.051 |
| CG A65T | 0.125 ± 0.051 | 0.0807 ± 0.096 |
| CG A69G | -0.41 ± 0.78 | -0.422 ± 0.41 |
| CG A69T | -0.153 ± 0.2 | -0.525 ± 0.1 |
| CG A69C | -0.309 ± 0.7 | -0.363 ± 0.1 |
| CG A75T T76A | -0.104 ± 0.2 | -0.129 ± 0.13 |
| CG A53G | 0.388 ± 0.41 | -0.054 ± 0.011 |
| CG A53T | 0.318 ± 0.24 | 0.0743 ± 0.088 |
| TG A70C T76A T84A C87A | 0.577 ± 0.018 | -0.0929 ± 0.15 |
| CG A53T A54T C55G T56A | -0.3673 ± 0.0015 | -0.413 ± 0.41 |
| CG A69C A70C | -0.684 ± 0.62 | -0.537 ± 0.29 |
| CG A69C A70C C71A C72A | -1.64 ± 0.34 | -1.88 ± 0.72 |
| CG A83C T84G | -0.6 ± 0.69 | -0.94 ± 0.4 |
| CG A81T T82A A83T T84A | -0.679 ± 1.2 | -0.753 ± 0.74 |
| CG A59C C60A | -0.233 ± 0.25 | -0.0701 ± 0.0044 |
| CG A58C A59C C60A C61A | 0.829 ± 0.17 | 1.06 ± 0.036 |
| CG A66T | 0.195 ± 0.21 | 0.0703 ± 0.19 |
| CG A66C | 0.113 ± 0.11 | -0.147 ± 0.047 |
| CG A66G | -0.258 ± 0.65 | 0.0591 ± 0.047 |
| AG A83C T84G T86G | -1.31 ± 0.49 | -0.668 ± 0.067 |
| CG A73G | 0.14 ± 0.13 | 0.0329 ± 0.31 |
| CG A73T | -0.055 ± 0.17 | -0.536 ± 0.45 |
| CG A73C | -2.78 ± 1.5 | -1.14 ± 0.6 |

| Variant | relative integration efficiency (log2) [1] | relative integration efficiency (log2) [2] |
| --- | --- | --- |
| CG A66C A67C C68A A69C | -0.943 ± 0.25 | -0.685 ± 0.37 |
| CG A69T A70T C71G C72G | -1.93 ± 1.4 | -1.77 ± 0.77 |
| CG A75T T76A A77T T78A | -0.0527 ± 0.32 | -0.453 ± 0.37 |
| CG A54C C55A | 0.298 ± 0.28 | -0.0734 ± 0.078 |
| CG A77C T78G T79G G80T | -2.28 ± 1.1 | -1.57 ± 0.49 |
| CG A66T A67T | 0.205 ± 0.48 | -0.0368 ± 0.048 |
| CG A70T C71G C72G A73T | -2.15 ± 0.26 | -2.22 ± 0.88 |
| CG A77T | -0.192 ± 0.066 | -0.217 ± 0.059 |
| CG A77C | 0.611 ± 0.89 | 0.337 ± 0.052 |
| CG A77G | 0.0745 ± 0.45 | -0.243 ± 0.024 |
| CG A67C C68A | -0.165 ± 0.81 | -0.108 ± 0.25 |
| CG A64C | -0.814 ± 1.1 | -0.0626 ± 0.11 |
| CG A64T | -0.053 ± 0.081 | -0.229 ± 0.11 |
| CG A64G | -0.0623 ± 0.097 | -0.383 ± 0.14 |
| CG A59T C60G C61G A62T | 0.314 ± 0.15 | 0.00645 ± 0.092 |
| CG A70C C71A C72A A73C | -2 ± 1.7 | -2.13 ± 0.84 |
| CG A54T C55G | 0.202 ± 0.2 | -0.316 ± 0.29 |
| CG A65T A66T A67T C68G | -0.641 ± 0.54 | -0.247 ± 0.37 |
| CG A88C | -0.0509 ± 0.39 | -0.148 ± 0.082 |
| CG A62G | 0.446 ± 0.39 | 0.318 ± 0.17 |
| CG A62T | 1.22 ± 0.39 | 1.17 ± 0.29 |
| CG A62C | 0.284 ± 0.025 | -0.0795 ± 0.022 |
| CG A59T | 0.107 ± 0.13 | 0.0634 ± 0.055 |
| CG A59G | 0.164 ± 0.45 | -0.0472 ± 0.057 |

| Variant | relative integration efficiency (log2) [1] | relative integration efficiency (log2) [2] |
| --- | --- | --- |
| CG A59C | 0.591 ± 0.26 | 0.072 ± 0.14 |
| CG A69T A70T | -0.797 ± 0.57 | -0.395 ± 0.4 |
| CG A65T A66T | 0.447 ± 0.39 | 0.107 ± 0.0079 |
| CG A81C T82G A83C T84G | -1.87 ± 0.22 | -1.9 ± 0.68 |
| CG A62T C63G A64T A65T | 0.238 ± 0.12 | 0.339 ± 0.046 |
| CG A66C A67C | -0.404 ± 0.29 | -0.0641 ± 0.033 |
| CG A73T T74A | -0.734 ± 0.56 | -0.97 ± 0.4 |
| CG A77T T78A | 0.574 ± 0.48 | 0.149 ± 0.12 |
| CG A75C T76G | -2.22 ± 0.87 | -1.59 ± 0.54 |
| CG A75C T76G A77C T78G | -2.25 ± 1.6 | -1.8 ± 0.61 |
| CG A66C C68A A69C A70C C71A C72T A77T T78G T79A G80T A83C T86A C87A | -2.717 ± 0.015 | -1.87 ± 0.77 |
| CG A81T T82A | -1.34 ± 0.81 | -1.03 ± 0.48 |
| CG A67C C68A A69C A70C | -0.846 ± 1.2 | -0.531 ± 0.42 |
| CG A64C A65C A66C A67C | -0.691 ± 0.34 | -0.323 ± 0.18 |
| CG A62C C63A | -0.193 ± 0.12 | 0.182 ± 0.065 |
| CG A65C A66C A67C C68A | -1.01 ± 0.56 | -0.474 ± 0.22 |
| CG A73C T74G | -2.3 ± 0.72 | -2.37 ± 0.86 |
| CG A70T C71G | -0.292 ± 0.66 | -0.898 ± 0.41 |
| CG A73T T74A A75T T76A | -1.64 ± 0.86 | -0.919 ± 0.62 |
| CG A67G | -0.325 ± 0.26 | -0.269 ± 0.083 |
| CG A67T | -0.588 ± 0.78 | -0.202 ± 0.27 |
| CG A67C | -0.106 ± 0.44 | -0.129 ± 0.051 |
| CG A58T A59T C60G C61G | -0.383 ± 0.24 | -0.275 ± 0.27 |
| CG A73C T74G A75C T76G | -1.86 ± 0.67 | -2.23 ± 0.73 |

| Variant | relative integration efficiency (log2) [1] | relative integration efficiency (log2) [2] |
| --- | --- | --- |
| CG A70T | -0.297 ± 0.68 | -0.12 ± 0.26 |
| CG A70G | -0.515 ± 0.21 | -0.664 ± 0.41 |
| CG A70C | 0.268 ± 0.068 | 0.0994 ± 0.073 |
| TG A70C T76A T86G | 0.145 ± 0.46 | -0.133 ± 0.18 |
| CG A54C C55A T56G T57G | -2.12 ± 1.2 | -1.68 ± 0.8 |
| CG A53C A54C C55A T56G | -0.0934 ± 0.06 | -0.592 ± 0.35 |
| CG A67T C68G | -0.364 ± 0.41 | -0.543 ± 0.47 |
| CG A64C A65C | -0.354 ± 0.13 | -0.201 ± 0.15 |
| CG A75C | 0.0557 ± 0.24 | 0.219 ± 0.63 |
| CG A75G | -0.592 ± 0.42 | -0.877 ± 0.4 |
| CG A75T | -0.0748 ± 0.42 | -0.289 ± 0.15 |
| CG A81T | -0.4 ± 0.15 | -0.396 ± 0.57 |
| CG A81G | -0.37 ± 0.32 | -0.449 ± 0.27 |
| CG A81C | -0.551 ± 0.4 | -0.479 ± 0.28 |
| CG A54T C55G T56A T57A | -0.43 ± 0.9 | -0.861 ± 0.54 |
| CG A77T T78A T79A G80C | -3.86 ± 2.7 | -2.18 ± 0.89 |
| CG A62T C63G | -0.0229 ± 0.67 | 0.275 ± 0.072 |
| GG A83T T84A T86A | -0.405 ± 0.36 | -0.604 ± 0.36 |
| CG A59T C60G | 0.263 ± 0.38 | -0.145 ± 0.073 |
| CG A58C A59C | -0.146 ± 0.33 | -0.0826 ± 0.066 |
| CG A64T A65T | 0.0165 ± 0.48 | 0.469 ± 0.084 |
| CG A53T A54T | -0.0995 ± 0.047 | -0.0854 ± 0.17 |
| CG A77C T86G | 0.141 ± 0.0087 | -0.217 ± 0.029 |
| CG A83T T84A | -0.352 ± 0.65 | -0.194 ± 0.16 |

| Variant | relative integration efficiency (log2) [1] | relative integration efficiency (log2) [2] |
| --- | --- | --- |
| CG A83T | -0.465 ± 0.53 | -0.189 ± 0.057 |
| CG A83C | 0.152 ± 0.25 | 0.0829 ± 0.27 |
| CG A83G | 0.426 ± 0.3 | 0.00989 ± 0.23 |
| CG A64T A65T A66T A67T | -0.239 ± 0.35 | -0.0292 ± 0.19 |
| CG A67T C68G A69T A70T | -1.78 ± 0.54 | -1.55 ± 0.73 |
| CG A53C A54C | 0.297 ± 0.47 | 0.0858 ± 0.13 |
| CG A77C T78G | 0.461 ± 0.32 | 0.644 ± 0.21 |
| CG A62C C63A A64C A65C | -0.604 ± 0.18 | -0.324 ± 0.044 |
| CG A58T A59T | 0.226 ± 0.49 | -0.00421 ± 0.16 |
| CG A81C T82G | -1.43 ± 0.033 | -0.963 ± 0.26 |
| CG A70C C71A | -1.75 ± 1.2 | -1.24 ± 0.54 |
| CG A66T A67T C68G A69T | -1 ± 0.9 | -0.447 ± 0.35 |
| CG A65C A66C | 0.318 ± 0.48 | 0.0588 ± 0.077 |
| CG A59C C60A C61A A62C | 0.009 ± 0.11 | 0.0247 ± 0.0075 |
| CG A54C | -0.339 ± 0.014 | -0.178 ± 0.022 |
| CG A54G | 0.358 ± 0.56 | 0.00787 ± 0.0088 |
| CG A54T | 0.264 ± 0.087 | 0.224 ± 0.12 |
| CG A58T | -1.76 ± 1.7 | -0.0803 ± 0.089 |
| CG A58C | -0.0754 ± 0.25 | -0.223 ± 0.17 |
| CG A58G | -0.0735 ± 0.46 | -0.101 ± 0.063 |
